Source: publication PMC9076864, “Cryo-EM structures of thylakoid-located voltage-dependent chloride channel VCCN1” (Nature Communications, 2022)

Biological target: the molecule itself
Assay: cryo-EM structure; single-particle cryo-EM of the channel reconstituted in MSP1E3D1/SoyPC nanodiscs; 50 mM Tris pH 8.0, 150 mM NaCl; C5 symmetry imposed

B1: Malus domestica VCCN1, N-terminally truncated "wild-type" construct (natural protein)
chain: MPNPSPPSSSSPVQTLISILRIIPDWSDRTQERGMRQHRTLYDHEKWMHHRSSYRHLRHLLSSLSSRVILSLIPPVIAFTLVAVVIASYNTAVALDLLPGIFPLLRSSSLPYQLTAPALALLLVFRTEASYSRFEEGRKAWTEVIAGANDFARQIISSVETSGDAQLKKALLQYIVAFPVALKCHVIYGSDIARDLQNLLEVDDLLVVLNSKHRPGCIIQFISRSLQLLKLEESRRIMLQSKISCFHEGIGICEQLIGTPIPLSYTRLTSRFLVLWHLTLPIILWDDCHWIVVPATFISAASLFCIEQVGVLIEEPFPMLALDDLCNSVRNNVQEALASEKLIRARLAAKGRIQSEQQFQNGQPRPENLYFQ
- stoichiometry N: 5
